For the data set, the target named is lactoferrin (LF) (bovine (milk), UniProt P24627 20-708). Description: PicoGreen dye-displacement fluorescence; PicoGreen; LF 100 nM and 1 uM; linear 20-500 nM, LOD 3 nM; Buffer, salt, pH and temperature not in the material; fluorescence ex 485 nm / em 528 nm, microplate reader. As to conditions: protein: commercial; label: none (label-free; PicoGreen intercalated).
lactoferrin (LF), sequence (P24627 20-708): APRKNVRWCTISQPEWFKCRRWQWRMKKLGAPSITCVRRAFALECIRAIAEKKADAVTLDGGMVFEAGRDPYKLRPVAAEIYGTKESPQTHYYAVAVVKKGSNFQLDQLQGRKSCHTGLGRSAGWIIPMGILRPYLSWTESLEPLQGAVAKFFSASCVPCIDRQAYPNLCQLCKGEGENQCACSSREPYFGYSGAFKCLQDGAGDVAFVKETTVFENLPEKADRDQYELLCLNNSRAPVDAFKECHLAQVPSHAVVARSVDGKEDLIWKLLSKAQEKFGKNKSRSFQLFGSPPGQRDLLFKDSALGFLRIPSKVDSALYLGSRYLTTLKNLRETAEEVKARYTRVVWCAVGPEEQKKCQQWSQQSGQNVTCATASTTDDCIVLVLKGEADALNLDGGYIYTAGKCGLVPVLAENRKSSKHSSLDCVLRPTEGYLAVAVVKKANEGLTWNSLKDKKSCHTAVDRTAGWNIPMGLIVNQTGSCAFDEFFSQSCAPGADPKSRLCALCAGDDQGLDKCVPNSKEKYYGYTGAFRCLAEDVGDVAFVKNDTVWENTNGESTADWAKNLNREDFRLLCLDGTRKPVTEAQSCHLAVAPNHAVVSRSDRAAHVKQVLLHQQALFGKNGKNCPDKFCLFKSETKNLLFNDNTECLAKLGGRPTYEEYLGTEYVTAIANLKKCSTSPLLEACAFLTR

As to TGGTGCTGCCCCTAGTCTCCGGCTGATAGCTGCTTCTTGG (ssDNA) [LF aptamer], the binding result is “binds”.

Source of the values: paper PMC9521185, “Self-assembly and label-free fluorescent aptasensor based on deoxyribonucleic acid intercalated dyes for detecting lactoferrin in milk powder”.
